Measured values published in PMC12229552 (Nature Communications, 2025).

Biological target: GST-tagged human EZH2 (human, UniProt Q15910-2 1-751)
Test: pull-down

binding result: binds
B1: 6×His-tagged human DDX1 (natural protein, UniProt Q92499-1 1-740, looked up)
chain: MAAFSEMGVMPEIAQAVEEMDWLLPTDIQAESIPLILGGGDVLMAAETGSGKTGAFSIPVIQIVYETLKDQQEGKKGKTTIKTGASVLNKWQMNPYDRGSAFAIGSDGLCCQSREVKEWHGCRATKGLMKGKHYYEVSCHDQGLCRVGWSTMQASLDLGTDKFGFGFGGTGKKSHNKQFDNYGEEFTMHDTIGCYLDIDKGHVKFSKNGKDLGLAFEIPPHMKNQALFPACVLKNAELKFNFGEEEFKFPPKDGFVALSKAPDGYIVKSQHSGNAQVTQTKFLPNAPKALIVEPSRELAEQTLNNIKQFKKYIDNPKLRELLIIGGVAARDQLSVLENGVDIVVGTPGRLDDLVSTGKLNLSQVRFLVLDEADGLLSQGYSDFINRMHNQIPQVTSDGKRLQVIVCSATLHSFDVKKLSEKIMHFPTWVDLKGEDSVPDTVHHVVVPVNPKTDRLWERLGKSHIRTDDVHAKDNTRPGANSPEMWSEAIKILKGEYAVRAIKEHKMDQAIIFCRTKIDCDNLEQYFIQQGGGPDKKGHQFSCVCLHGDRKPHERKQNLERFKKGDVRFLICTDVAARGIDIHGVPYVINVTLPDEKQNYVHRIGRVGRAERMGLAISLVATEKEKVWYHVCSSRGKGCYNTRLKEDGGCTIWYNEMQLLSEIEEHLNCTISQVEPDIKVPVDEFDGKVTYGQKRAAGGGSYKGHVDILAPTVQELAALEKEAQTSFLHLGYLPNQLFRTF
